Experimental data as given in paper PMC5771688.

Tests used:
[1] = biological target: VE-cadherin (VEC) of VEC-positive cells (VEC-null line reconstituted with VEC wild type cDNA) (UniProt P33151); test: co-IP
[2] = biological target: β-catenin (endogenous) (mouse (endogenous in mouse ECs)) (UniProt Q02248); test: co-IP
Sequence of UniProt Q02248 (Q02248 whole entry): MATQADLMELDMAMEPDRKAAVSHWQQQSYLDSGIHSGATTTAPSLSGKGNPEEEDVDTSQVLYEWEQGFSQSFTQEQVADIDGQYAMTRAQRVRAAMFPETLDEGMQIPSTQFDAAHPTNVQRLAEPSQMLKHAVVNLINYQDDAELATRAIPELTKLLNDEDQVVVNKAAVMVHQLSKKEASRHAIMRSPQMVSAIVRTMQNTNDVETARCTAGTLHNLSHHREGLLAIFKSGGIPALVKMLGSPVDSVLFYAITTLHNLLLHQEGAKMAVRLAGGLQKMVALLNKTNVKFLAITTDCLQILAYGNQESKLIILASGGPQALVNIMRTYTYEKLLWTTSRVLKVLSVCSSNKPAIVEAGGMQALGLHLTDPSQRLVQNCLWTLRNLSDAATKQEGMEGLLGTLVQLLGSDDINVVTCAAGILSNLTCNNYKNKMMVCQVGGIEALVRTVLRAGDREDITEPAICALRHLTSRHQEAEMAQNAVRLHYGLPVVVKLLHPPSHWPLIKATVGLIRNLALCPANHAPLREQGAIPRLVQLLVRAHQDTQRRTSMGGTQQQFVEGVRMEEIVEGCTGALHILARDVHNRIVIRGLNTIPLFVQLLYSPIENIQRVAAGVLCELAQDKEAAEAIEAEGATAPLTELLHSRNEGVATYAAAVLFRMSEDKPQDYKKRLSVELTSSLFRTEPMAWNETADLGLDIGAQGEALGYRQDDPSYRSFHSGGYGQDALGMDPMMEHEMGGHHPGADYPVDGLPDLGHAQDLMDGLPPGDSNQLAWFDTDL

Sequence of UniProt P33151 (P33151 48-784): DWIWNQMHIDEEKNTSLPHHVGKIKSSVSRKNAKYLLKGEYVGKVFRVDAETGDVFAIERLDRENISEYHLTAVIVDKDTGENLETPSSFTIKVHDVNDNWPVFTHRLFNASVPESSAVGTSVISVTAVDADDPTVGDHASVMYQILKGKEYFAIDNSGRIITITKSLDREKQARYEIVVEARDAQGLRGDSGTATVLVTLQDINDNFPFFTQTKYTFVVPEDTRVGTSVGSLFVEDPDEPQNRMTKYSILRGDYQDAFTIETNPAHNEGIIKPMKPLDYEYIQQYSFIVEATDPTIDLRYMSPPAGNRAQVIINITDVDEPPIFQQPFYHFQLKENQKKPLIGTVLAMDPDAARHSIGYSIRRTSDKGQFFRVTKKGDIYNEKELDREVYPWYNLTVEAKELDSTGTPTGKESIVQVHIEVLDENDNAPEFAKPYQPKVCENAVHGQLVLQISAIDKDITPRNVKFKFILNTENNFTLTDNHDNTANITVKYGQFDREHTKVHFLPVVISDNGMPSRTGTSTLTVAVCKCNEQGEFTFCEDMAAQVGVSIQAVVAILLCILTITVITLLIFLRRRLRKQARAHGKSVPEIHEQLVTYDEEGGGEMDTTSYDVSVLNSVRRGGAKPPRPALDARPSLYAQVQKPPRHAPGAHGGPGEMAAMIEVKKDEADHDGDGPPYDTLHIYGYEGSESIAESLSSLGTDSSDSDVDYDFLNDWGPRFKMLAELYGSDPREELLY

Row | Substance | percent reduction of VEC/Ezh2 association [1] | percent reduction of VEC/Ezh2 association [2]
1 | TAT-M10 (Ezh2 peptide M10 synthesized in tandem with TAT of human immunodeficiency virus) (from UniProt Q61188 454-473) | 45.3% | 
2 | TAT-P30 (Ezh2 peptide P30 synthesized in tandem with TAT of human immunodeficiency virus) (from UniProt Q61188 585-604) |  | 28%
